Data reported in patent US20220105157A1, “Compositions and Methods for Promoting Angiogenesis in the Eye” (The Regents of the University of California, priority 2019, published 2022).

Columns and labels:
[1] = test system: retinal vasculature of mouse eyes; experiment: Intravitreal injection of recombinant proteins in mouse eyes, retinal vessel density; type: in vivo; conditions: mice, intravitreal
Protocol: Male C57BL/6J mice (6-8 week and P5) were anesthetized with ketamine/Xylazine cocktail. The indicated amounts of recombinant LIF (Sigma, CAT #SRP9001) in 1 μl of PBS and PBS vehicle control were injected intravitreally with a 33-gauge Hamilton syringe. Seven (for adult mice) or 3 (for neonatal mice) days after injection, animals were euthanized, eyes were then enucleated and fixed in 4% paraformaldehyde (PFA) for 15 min. Choroid-sclera complexes and retinas were separated and anti-CD31 immunofluorescence (IF) or lectin labeling was performed to evidence the vasculature by whole mount staining of both retina and choroidal tissues or flat-mounts of retina. For CD31 IF, rat anti-mouse antibody (BD Biosciences, CAT #550274) was diluted 1:100 and incubated overnight at 4° C. After 4-hour incubation with the Alexa Fluor-488-conjugated anti-rat antibody (Life Technologies, CAT #A11006), whole mounts were imaged via the 488 nm channel using Keyence Microscope BZ-X710 (Keyence Corporation, Osaka, Japan) or A1R Confocal STORM super-resolution system (Nikon). For lectin staining, Dylight-488-labeled lectin (Vector Laboratories, CAT #DL-1174) was diluted at 1:200 and images were obtained using A1R Confocal STORM super-resolution system (Nikon). For Quantification of vascular density in choroids and retina was carried out by Image J. Student's t test was used for statistical analysis. […]
Optical coherence tomography angiography (OCTA) imaging of the retina of adult mice was performed 7 days after LIF injection, using a 1300 nm optical coherence tomography (OCT) system developed by Dr. R. K. Wang's group at University of Washington Seattle, in agreement with previously described methodology (66). […] To quantify the retinal vascular density, retinal and choroidal layers in 3D structure OCT scans were separated by the hyper-reflecting retinal pigment epithelium (RPE). […] The vessel density was then determined by calculating the percentages of vessel-covered area in total area of view using the ImageJ software.

[2] = test system: choroid capillaries of NaIO3-treated mice; experiment: Sodium iodate (NaIO3) model, choroid capillary recovery; type: in vivo, mouse; conditions: NaIO3 20 mg/kg i.v.; intravitreal LIF 50 ng, CT-1 different doses, OSM 10 ng; OCT-A
Protocol: Eight-week-old C57BL/6J mice were anesthetized with ketamine/xylazine cocktail. Sterilized NaIO3 was administered as a single intravenous injection (20 mg/kg body weight) (28) (29). Control mice were injected with PBS. PBS, LIF (50 ng), CT-1 (different doses) or OSM (10 ng) was injected intravitreally in five-mice groups. Five, seven and nine days after injection, choroid capillaries were monitored by OCT-A system. 9 days after injection, mice were killed and eyes were harvested for H&E and immunofluorescent staining. Avascular area in choroid capillaries was analyzed using ImageJ.

[3] = test system: bovine choroidal endothelial (BCE) cells; experiment: BCE endothelial cell proliferation assay (alamar blue); type: cell-based; parameters: key to BCE cell growth normalized to the vehicle control group: ns, not statistically significant; conditions: for BCE cell growth normalized to the vehicle control group: day 6, n = 3
Protocol: The bovine endothelial proliferation assays were performed essentially as previously described (63, 64). BCE (1×10^3 cells/well) or BRE (5×10^2 cells/well) cells were seeded in 96-well plates in the culture medium (DMEM-low glucose supplemented with 10% BCS, 2 mM glutamine and antibiotics) plus testing materials with a total volume of 200 μl per well. BAE cells were plated in 96-well plates at a density of 2×10^3 cells in the culture medium (DMEM-low glucose supplemented with 1% BCS and antibiotics) plus testing material with a total volume of 200 μl per well. HRME cells were seeded at a density of 1×10^3 cells/well in gelatin-coated 96-well plates in assay medium (DMEM-low glucose supplemented with 20% FBS and antibiotics) plus testing materials to make a total volume 200 μl per well. For assays involving antibodies or small-molecule inhibitors, inhibitors or vehicle controls were first added and then test materials were added one hour later. After 6 days (unless otherwise specified), cells were incubated with alamar blue for 4 h. Fluorescence was measured at 530 nm excitation wavelength and 590 nm emission wavelength. Each experiment was carried out in duplicate/triplicate and repeated at least three times.

Molecule | vascular density in the retina [1] | avascular areas in choroid compared to PBS group [2] | stimulation of BCE cell growth (mitogenic activity) [3] | BCE cell growth normalized to the vehicle control group ([3]; 3 ng/ml) | BCE cell growth normalized to the vehicle control group ([3]; 10 ng/ml) | BCE cell growth normalized to the vehicle control group ([3]; 30 ng/ml) | BCE cell growth normalized to the vehicle control group ([3]; 100 ng/ml) | BCE cell growth normalized to the vehicle control group ([3]; 300 ng/ml) | BCE cell growth normalized to the vehicle control group ([3]; 1000 ng/ml) | increase in retinal density ([1]; 20 ng) | increase in retinal density ([1]; 100 ng)
OSM: oncostatin M, IL-6 family member (protein, UniProt P13725 26-221, looked up) Oncostatin-M: AAIGSCSKEYRVLLGQLQKQTDLMQDTSRLLDPYIRIQGLDVPKLREHCRERPGAFPSEETLRGLGRRGFLQTLNATLGCVLHRLADLEQRLPKAQDLERSGLNIEDLEKLQMARPNILGLRNNIYCMAQLLDNSDTAEPTKAGRGASQPPTPTPASDAFQRKLEGCRFLHGYHRFMHSVGRVFSKWGESPNRSRR | vascular density decreased | larger than in the PBS group | – | – | – | – | – | – | – | – | –
PRDX-1: recombinant human Peroxiredoxin 1 (protein, UniProt Q06830 2-199, looked up) Peroxiredoxin-1: SSGNAKIGHPAPNFKATAVMPDGQFKDISLSDYKGKYVVFFFYPLDFTFVCPTEIIAFSDRAEEFKKLNCQVIGASVDSHFCHLAWVNTPKKQGGLGPMNIPLVSDPKRTIAQDYGVLKADEGISFRGLFIIDDKGILRQITVNDLPVGRSVDETLRLVQAFQFTDKHGEVCPAGWKPGSDTIKPDVQKSKEYFSKQK | – | – | had no effect | ns | ns | ns | ns | ns | ns | – | –
CT-1: cardiotrophin-1, IL-6 family member (protein, UniProt Q16619 1-201, looked up) Cardiotrophin-1: MSRREGSLEDPQTDSSVSLLPHLEAKIRQTHSLAHLLTKYAEQLLQEYVQLQGDPFGLPSFSPPRLPVAGLSAPAPSHAGLPVHERLRLDAAALAALPPLLDAVCRRQAELNPRAPRLLRRLEDAARQARALGAAVEALLAALGAANRGPRAEPPAATASAASATGVFPAKVLGLRVCGLYREWLSRTEGDLGQLLPGGSA | – | reduced avascular areas | – | – | – | – | – | – | – | approximately 30% | ~50%
